Results reported in paper PMC10103940.

Biological target: yNup100FG (yeast) (UniProt Q02629)
Experiment: high-speed atomic force microscopy

Sequence of UniProt Q02629 (Q02629 whole entry): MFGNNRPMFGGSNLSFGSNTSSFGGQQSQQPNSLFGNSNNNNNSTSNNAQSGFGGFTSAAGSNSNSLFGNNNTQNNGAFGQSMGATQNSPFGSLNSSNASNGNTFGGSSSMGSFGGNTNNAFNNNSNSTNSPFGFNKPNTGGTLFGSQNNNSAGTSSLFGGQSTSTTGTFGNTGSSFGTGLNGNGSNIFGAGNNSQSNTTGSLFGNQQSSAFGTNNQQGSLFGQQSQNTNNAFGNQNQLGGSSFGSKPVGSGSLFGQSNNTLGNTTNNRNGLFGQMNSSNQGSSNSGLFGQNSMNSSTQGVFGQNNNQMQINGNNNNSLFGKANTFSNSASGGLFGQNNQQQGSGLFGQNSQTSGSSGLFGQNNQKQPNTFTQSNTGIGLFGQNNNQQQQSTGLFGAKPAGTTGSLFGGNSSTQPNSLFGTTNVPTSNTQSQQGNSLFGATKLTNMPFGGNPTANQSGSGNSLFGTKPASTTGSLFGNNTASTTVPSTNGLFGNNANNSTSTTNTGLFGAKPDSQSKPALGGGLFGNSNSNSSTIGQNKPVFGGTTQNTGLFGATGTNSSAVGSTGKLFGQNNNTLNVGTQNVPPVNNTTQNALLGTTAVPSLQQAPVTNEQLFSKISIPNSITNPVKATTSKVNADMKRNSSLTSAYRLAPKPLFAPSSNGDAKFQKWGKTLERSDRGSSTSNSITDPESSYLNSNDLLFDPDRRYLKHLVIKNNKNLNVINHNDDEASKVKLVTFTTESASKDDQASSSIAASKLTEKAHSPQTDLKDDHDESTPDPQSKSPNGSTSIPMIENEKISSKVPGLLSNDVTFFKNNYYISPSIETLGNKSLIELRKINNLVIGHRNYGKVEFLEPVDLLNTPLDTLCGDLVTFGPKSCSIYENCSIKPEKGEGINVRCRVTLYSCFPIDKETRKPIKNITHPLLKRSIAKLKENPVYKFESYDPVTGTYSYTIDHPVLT

height increase of the hydrogel due to Kap95 binding: 31.2 nm
Substance: Yeast Kap95 (recombinant) (from UniProt Q06142 1-861) (natural protein)
